# Source: PMC10716038, “Talin and kindlin use integrin tail allostery and direct binding to activate integrins” (Nature Structural & Molecular Biology, 2023)
# B1: talin-1 head domain (THD1) [not stated] / ATTO 488-labelled β3-CT (488–β3-CT) [modified: ATTO 488 at the N terminus; ATTO 488 at the N terminus] [not stated] (parent)
# chain 1: MVALSLKISIGNVVKTMQFEPSTMVYDACRMIRERIPEALAGPPNDFGLFLSDDDPKKGIWLEAGKALDYYMLRNGDTMEYRKKQRPLKIRMLDGTVKTIMVDDSKTVTDMLMTICARIGITNHDEYSLVRELMEEKKDEGTGTLRKDKTLLRDEKKMEKLKQKLHTDDELNWLDHGRTLREQGVEEHETLLLRRKFFYSDQNVDSRDPVQLNLLYVQARDDILNGSHPVSFDKACEFAGFQCQIQFGPHNEQKHKAGFLDLKDFLPKEYVKQKGERKIFQAHKNCGQMSEIEAKVRYVKLARSLKTYGVSFFLVKEKMKGKNKLVPRLLGITKECVMRVDEKTKEVIQEWSLTNIKRWAASPKSFTLDFGDYQDGYYSVQTTEGEQIAQLIAGYIDIILKKKKS
# chain 2: KLLITIHDRKEFAKFEEERARAKWDTANNPLYKEATSTFTNITYRGT
# Variants of: B1
# Assay: MST
# Details: with ATTO 488-labelled β3-CT (488–β3-CT) [modified: ATTO 488 at the N terminus, 30-40 µM KIND2, n = 2, read off a plot
row,Variant,screen value
1,chain 1 K402A K403A,0.7
2,chain 1 I396A,1
3,chain 1 K401A,0.55
4,chain 1 K402A,0.45
5,chain 1 Y395A,0.68
6,chain 1 I399A,0.93
7,chain 1 K403E,0.57
8,chain 1 K404A,0.75
9,chain 1 L400A,1.1
10,chain 1 K403A,0.5
11,chain 1 I398A,0.65
